Measurements: patent US20230333112A1 (published 2023)

B1: BJM1042 (bispecific anti-TRBC1/NKp30 antibody) (bispecific antibody)
heavy: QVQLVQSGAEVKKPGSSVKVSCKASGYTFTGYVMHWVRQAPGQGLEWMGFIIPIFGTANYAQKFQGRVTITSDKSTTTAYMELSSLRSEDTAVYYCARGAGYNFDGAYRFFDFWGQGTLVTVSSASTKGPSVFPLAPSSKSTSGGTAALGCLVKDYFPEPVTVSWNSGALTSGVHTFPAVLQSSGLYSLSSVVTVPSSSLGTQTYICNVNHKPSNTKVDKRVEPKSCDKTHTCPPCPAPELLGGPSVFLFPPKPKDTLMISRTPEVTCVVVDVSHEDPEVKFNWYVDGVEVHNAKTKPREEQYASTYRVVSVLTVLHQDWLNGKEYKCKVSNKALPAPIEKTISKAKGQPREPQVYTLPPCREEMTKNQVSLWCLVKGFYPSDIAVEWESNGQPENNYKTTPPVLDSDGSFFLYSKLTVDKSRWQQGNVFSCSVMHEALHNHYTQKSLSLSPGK
light: DVVMTQSPLSLPVTLGQPASISCRSSQRLVHSNGNTYLHWYQQRPGQSPRLLIYRVSNRFPGVPDRFSGSGSGTDFTLKISRVEAEDVGVYFCSQSTHVPYTFGGGTKVEIKRTVAAPSVFIFPPSDEQLKSGTASVVCLLNNFYPREAKVQWKVDNALQSGNSQESVTEQDSKDSTYSLSSTLTLSKADYEKHKVYACEVTHQGLSSPVTKSFNRGEC
chain: EIQLLESGGGLVQPGGSLRLSCAVSGFSITTTGYHWNWVRQAPGKGLEWVGYIYSSGSTSYNPSLKSRFTISRDTSKNTFYLQMNSLRAEDTAVYYCARGDWHYFDYWGQGTMVTVSSGGGGSGGGGSGGGGSGGGGSDSVTTQSPLSLPVTLGQPASISCSGEKLSDKYVHWYQQRPGQSPRMLIYENDRRPSGVPDRFSGSNSGNDATLKISRVEAEDVGVYFCQFWDSTNSAVFGGGTKVEIKDKTHTCPPCPAPELLGGPSVFLFPPKPKDTLMISRTPEVTCVVVDVSHEDPEVKFNWYVDGVEVHNAKTKPREEQYASTYRVVSVLTVLHQDWLNGKEYKCKVSNKALPAPIEKTISKAKGQPREPQVCTLPPSREEMTKNQVSLSCAVKGFYPSDIAVEWESNGQPENNYKTTPPVLDSDGSFFLVSKLTVDKSRWQQGNVFSCSVMHEALHNHYTQKSLSLSPGK
B2: B7-H6 (ligand)
chain: DLKVEMMAGGTQITPLNDNVTIFCNIFYSQPLNITSMGITWFWKSLTFDKEVKVFEFFGDHQEAFRPGAIVSPWRLKSGDASLRLPGIQLEEAGEYRCEVVVTPLKAQGTVQLEVVASPASRLLLDQVGMKENEDKYMCESSGFYPEAINITWEKQTQKFPHPIEISEDVITGPTIKNMDGTFNVTSCLKLNSSQEDPGTVYQCVVRHASLHTPLRSNFTLTAARHSLSETEKTDNFS

Assays:
[1] = molecular target: T1, NKp30 coated on the ELISA plate (Example 14) (UniProt O14931 19-135); experiment: competition ELISA; blocking of B7-H6 binding to NKp30
T1 chain: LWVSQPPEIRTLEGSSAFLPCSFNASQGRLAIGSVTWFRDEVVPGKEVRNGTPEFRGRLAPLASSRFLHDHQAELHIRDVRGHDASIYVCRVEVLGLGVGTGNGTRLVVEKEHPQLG

[2] = molecular target: T1, NKp30 coated on the ELISA plate …; experiment: ELISA

Row | Binder | IC50 [1] [nM] | Kd [2] [nM]
1 | B1 | 29.4 | 0.578
2 | B2 | – | 6.56
